What was measured:
wild type HAB1 = target: T1, wild type HAB1 (Arabidopsis thaliana, UniProt O49686+Q9CAJ0, A160V/F108A/F159V/K59R/M158I/S122G/T162D/V81I/Y58H); assay: In vitro pull down assay with recombinant 6×-His receptor and GST-PP2C; format: binding; details: 10 μM mandipropamid; FIG. 8
T1 construct: made in house; host or cells: E. coli BL21 [DE3]pLysS
Source text: (§1) To characterize the orthogonal orthogonal module biochemically, we produced recombinant forms of 6×-His-PYR1*^-MANDI, 6×-His-PYR1, GST-HAB1*, and GST-HAB1 in E. coli, as described above, and tested wild type and orthogonal receptors for their ability to inhibit GST-HAB1 activity in vitro, as well as their physical interactions with one another using pull-down assays. To characterize PYR1*^-MANDI and HAB1* in vitro, we cloned PYR1*^-MANDI into pET28 to generate a 6×-His tagged receptor and cloned HAB1* into pGEX-4T-1 to create a GST-fusion protein. Recombinant 6×-His-PYR1*^-MANDI and GST-HAB1* were prepared, as described above in example 1C, and used in experiments with previously prepared 6×-His-PYR1 and GST-HAB1. To conduct pull down assays, the specified recombinant receptor and PP2C (20 and 140 μg respectively), were combined in 500 μl PP2C assay buffer (100 mM Tris-HCl (pH 7.9), 100 mM NaCl, 1 mM MnCl2, 1% 13-ME and 0.3% BSA) containing either 10 μM ABA, 10 μM mandipropamid or 1% DMSO carrier solvent as a negative control. The final protein concentrations in the reactions are 1.6 μM receptor and 3.4 μM PP2C. The reactions were incubated for 90 minutes at room temperature (RT) and 20 μl of PrepEase (USB) His-tagged protein purification resin (20 mg) was added. The resin and reaction mixtures were incubated for 30 minutes at RT with gentle shaking at 5 minute intervals. The resin was washed five times and 100 μl of SDS-PAGE buffer was added and boiled for 5 minutes. After centrifugation 20 μl of supernatant was analyzed by SDS-PAGE.

wild type PYR1 = target: T2, wild type PYR1 (Arabidopsis thaliana, UniProt O49686); assay: as above; format: binding; details: FIG. 8
T2 construct: made in house; host or cells: E. coli BL21 [DE3]pLysS
T2 sequence (O49686 1-191): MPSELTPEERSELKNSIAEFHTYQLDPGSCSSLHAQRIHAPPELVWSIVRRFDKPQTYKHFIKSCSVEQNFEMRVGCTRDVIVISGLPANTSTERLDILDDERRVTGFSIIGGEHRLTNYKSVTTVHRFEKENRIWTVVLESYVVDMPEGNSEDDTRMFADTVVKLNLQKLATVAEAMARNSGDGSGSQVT
Source text: as §1

T1 sequence (Q9CAJ0 23-511, one chain of several): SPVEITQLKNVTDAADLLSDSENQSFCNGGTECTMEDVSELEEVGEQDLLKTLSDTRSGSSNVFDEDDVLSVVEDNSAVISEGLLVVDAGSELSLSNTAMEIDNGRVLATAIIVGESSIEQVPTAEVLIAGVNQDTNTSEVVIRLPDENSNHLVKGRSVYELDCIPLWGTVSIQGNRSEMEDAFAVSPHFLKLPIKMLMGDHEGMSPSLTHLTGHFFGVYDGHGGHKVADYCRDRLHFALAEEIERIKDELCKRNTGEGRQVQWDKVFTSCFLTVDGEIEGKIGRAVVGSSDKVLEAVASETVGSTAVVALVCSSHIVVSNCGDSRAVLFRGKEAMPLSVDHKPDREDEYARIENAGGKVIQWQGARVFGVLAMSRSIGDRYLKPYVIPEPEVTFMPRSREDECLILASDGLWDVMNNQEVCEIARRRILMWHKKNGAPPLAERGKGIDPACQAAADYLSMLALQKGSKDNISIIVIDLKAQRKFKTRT

B1: PYR1*^-MANDI: PYR1 mutant with 9 mutations, most sensitive to mandipropamid (protein, listed as Arabidopsis thaliana)
chain: MPSELTPEERSELKNSIAEFHTYQLDPGSCSSLHAQRIHAPPELVWSIVRRFDKPQTHRHFIKSCSVEQNFEMRVGCTRDIIVISGLPANTSTERLDILDDERRVTGASIIGGEHRLTNYKGVTTVHRFEKENRIWTVVLESYVVDMPEGNSEDDTRIVVDDVVKLNLQKLATVAEAMARNSGDGSGSQVT
- binding to wild type HAB1 (wild type HAB1): can bind

B2: HAB1*: catalytically inactive orthogonal pentuple HAB1 mutant (protein, listed as Arabidopsis thaliana)
chain: MTPAVAMTLSLAANTMCESSPVEITQLKNVTDAADLLSDSENQSFCNGGTECTMEDVSELEEVGEQDLLKTLSDTRSGSSNVFDEDDVLSVVEDNSAVISEGLLVVDAGSELSLSNTAMEIDNGRVLATAIIVGESSIEQVPTAEVLIAGVNQDTNTSEVVIRLPDENSNHLVKGRSVYELDCIPLWGTVSIQGNASEMEAAFAVSPHFLKLPIKMLMGDHEGMSPSLTHLTGHFFGVYDGHGGHKVADYCRDRLHFALAEEIERIKDELCKRNTGEGRQVQWDKVFTSCFLTVDGEIEGKIGRAVVGSSDKVLEAVADETVGSTAVVALVCSSHIVVSNCGDSRAVLFRGKEAMPLSVDHKPDREDEYARIENAGGKVIQWQGARVFGRLAMSRSIGDRYLKPYVIPEPEVTFMPRSREDECLILASDGLWDVMNNQEVCEIARRRILMWHKKNGAPPLAERGKGIDPACQAAADYLSMLALQKGSKDNISIIVIDLKAQAKFKTRT
- binding to wild type PYR1 (wild type PYR1; 10 μM ABA): does not bind
- binding to wild type PYR1 (wild type PYR1; 10 μM mandipropamid): does not bind

From US10919943B2, “Mutant proteins enabling agrochemical control of plant gene expression” (The Regents of the University of California, priority 2016, dated 2021)
